Results on 10 molecules are retold here after US20070128192A1.

Changes are numbered by the printed parent chain.

First the molecules themselves.
B1: BAK1105H3 scFv (scFv, V domains shown, part only)
VH: QVQLVQSGAEVKKPGASVKVSCKASGYTFTNYGLSWVRQAPGQGLEWMGWISGLNGETLYGQEFQGRVTMTTDTSTSTAYMELRSLRSDDTAVYYCARDSSSSWARWFFDLWGRGTLVTVSS
VL: SYVLTQPPSVSVAPGKTARITCGGNIIGSKLVHWYQQKPGQAPVLVIYDDGDRPSGIPERFSGSNSGNTATLTISRVEAGDEADYYCQVWDTGSDPVVFGGGTKLTVL
modifications: scFv linker not given
B2: BAK1167F4 scFv (scFv, V domains shown, part only)
VH: B1 VH with T30I, N31D, Y32T, L34V, G53A, L54N, E57D, L59N
VL: B1 VL
modifications: scFv linker not given
B3: BAK1184C8 scFv (scFv, V domains shown, part only)
VH: B1 VH with L54S, E57Y, L59S
VL: B1 VL
modifications: scFv linker not given
B4: BAK1185F8 scFv (scFv, V domains shown, part only)
VH: B1 VH with N31D, S52R, G53N, L54I, N55D, E57Y, L59I
VL: B1 VL
modifications: scFv linker not given
B5: BAK1111D10 scFv (scFv, V domains shown, part only)
VH: B1 VH with S52A, G53T, L54P, N55D, E57Q, L59S, S101N
VL: B1 VL
modifications: scFv linker not given
B6: BAK1187B4 scFv (scFv, part only; not given: Linker, part only)
scFv, part: QVQLVQSGAEVKKPGASVKVSCKASGYTFTNYGLSWVRQAPGQGLEWMGWIDDDSGTTIYGQEFQGRVTMTTDTSTSTAYMELRSLRSDDTAVYYCARDSSSSWARWFFDLWGRGTLVTVSSSYVLTQPPSVSVAPGKTARITCGGNIIGSKLVHWYQQKPGQAPVLVIYDDGDRPSGIPERFSGSNSGNTATLTISRVEAGDEADYYCQVWDTGSDPVVFGGGTKLTVL
B7: BAK1185E1 scFv (scFv, part only; not given: Linker, part only)
scFv, part: B6 scFv, part with D52N, D54A, S55T, T57D, I59Q
B8: BAK1166G2 scFv (scFv, part only; not given: Linker, part only)
scFv, part: B6 scFv, part with T30A, Y32T, L34I, D52S, D53A, D54N, S55N, T57D, I59N
B9: BAK1167F2 scFv (scFv, part only; not given: Linker, part only)
scFv, part: B6 scFv, part with T30E, N31Q, Y32T, L34V, D52S, D53A, D54N, S55N, T57D, I59N
B10: BAK278D6 scFv (scFv, V domains shown)
VH: EVQLVQSGAEVKKPGASVKVSCKASGYTFRNYGLSWVRQAPGQGLEWMGWISANNGDTNYGQEFQGRITMTTETSTNTAHMELRSLRSDDTAVYYCVRDSSSNWARWFFDLWGKGTMVTVSS
VL: B1 VL with K16Q, T21P, I26N, I47V, V77I, E78D

The target of the first test is human IL-13 (human) (UniProt P35225). Nature of the test: cell-based or functional assay.
Take B1: the IC50, TF-1 cell proliferation assay is 0.2 nM.

The molecule B2 came in with an IC50, TF-1 cell proliferation assay of 0.2 nM.

Consider B3, for which the IC50, TF-1 cell proliferation assay amounted to 0.2 nM.

As to B4, the IC50, TF-1 cell proliferation assay came to 0.2 nM.

Molecule B5 came in with an IC50, TF-1 cell proliferation assay of 0.2 nM.

Take B6: the IC50, TF-1 cell proliferation assay turned out to be 0.1 nM.

Take B7: the IC50, TF-1 cell proliferation assay is 0.2 nM.

Molecule B8 returned an IC50, TF-1 cell proliferation assay of 0.2 nM.

B9 had an IC50, TF-1 cell proliferation assay of 0.2 nM.

The next test deals with human IL-13 variant (Q130R), baculovirus expressed, carboxyl terminus affinity tag (human) (UniProt P35225).
Assay: not given
The molecule B10 showed an IC50 (read off the curve); TF-1 cell proliferation, 25 ng/ml human IL-13 variant (Q130R) of 80 nM.
